In patent US20110243959A1, “MODULATING NEURONAL PLASTICITY AND TREATMENT OF NEURONAL LOSS BY MODULATIONG WNT7A OR WNT7B MODULATION” (priority 2008, published 2011):

B1: sFRP-1: Mature recombinant secreted frizzled-related protein 1 from R&D systems, used as local inhibitor of Wnt signaling (protein, UniProt Q8N474 32-314, looked up)
Secreted frizzled-related …: SEYDYVSFQSDIGPYQSGRFYTKPPQCVDIPADLRLCHNVGYKKMVLPNLLEHETMAEVKQQASSWVPLLNKNCHAGTQVFLCSLFAPVCLDRPIYPCRWLCEAVRDSCEPVMQFFGFYWPEMLKCDKFPEGDVCIAMTPPNATEASKPQGTTVCPPCDNELKSEAIIEHLCASEFALRMKIKEVKKENGDKKIVPKKKKPLKLGPIKKKDLKKLVLYLKNGADCPCHQLDNLSHHFLIMGRKVKSQYLLTAIHKWDKKNKEFKNFMKKMKNHECPTFQSVFK

Legend:
Wnt signaling [1] = experiment: Application to organotypic slice cultures; format: cell-based; details: organotypic slice cultures (not shown)
From the text: Organotypic slice cultures were based on the Stoppini method (Stoppini et al., 1991), as described (De Paola et al., 2003).
Immunocytochemistry preparations were imaged on an LSM510 confocal microscope (Zeiss) using a 40× (1.4) oil-immersion objective. Imaging of organotypic slice cultures was as described. Briefly, images were acquired with an LSM 510 (Zeiss), using a 40× (1.4) oil objective (Zeiss); image sizes were 2048×2048, and stepsizes were 0.4 μm. Where indicated, drugs were replaced every 3-4 days, together with fresh medium.
(§1) Microscope images were processed and analysed using Metamorph 6.1, Imaris 4.2 (Bitplane AG) and ImageJ softwares. We defined LMTs as mossy fiber terminal regions of >2.5 μm diameter in CA3a-c, which were arranged either en-passant, or as side structures connected to the mossy fiber axon or another LMT by an axonal process (satellite). For the quantification of LMT sizes in 3D (volumes) at least three confocal 3D stacks were acquired in CA3b for each preparation (three mice per condition), and analyzed using Imaris 4.2 software.

Wnt signaling [2] = experiment: Local application into CA3 in mice housed under control conditions; format: in vivo
From the text: (§2) For enriched environment (EE) experiments, male mice were housed in groups of 3-4 littermates in large (rat) cages equipped with 3 running wheels per cage, toys and hiding spaces. Control mice were male littermates (3-4), which were housed individually in small standard cages without special equipment. Unless stated otherwise, EE was started at 1 month of age, and lasted 20 days.
Mature recombinant sFRP-1 was obtained from R&D systems and dissolved in PBS/0.1% BSA (vehicle: PBS/0.1% BSA) to a working concentration of 50 μg/ml. Wnt agonist (Calbiochem) was dissolved in a small volume of DMSO and then further diluted with PBS to a final concentration of 10 mM (DMSO<1:1000). PBS/DMSO solution alone was used as vehicle for control injections. Antibodies were from the following sources: Bassoon, anti-mouse Alexa Fluor 546 and 647, anti-goat Alexa Fluor 546 and 633, donkey anti-goat Alexa Fluor 568 (Molecular Probes); NeuN anti-mouse (CHEMICON); anti-human Wnt7a/b antibody (R&D, P56706). […] Reagents, with their working concentrations were: TTX (Laxotan, 1 μM, stock in acetate buffer), Bicuculine (SIGMA, 20 μM in water), CGP (SIGMA, 0.4 μM in water), Picrotoxin (SIGMA, 20 μM in water).
Injection canulas were implanted unilaterally (left hemisphere) above the CA3 b-a region of Isofluorane-anesthetized mice using stereotactical guidance. Canulas were fixed with dental cement. Implantation coordinates from Bregma (implantation 0.5 mm above injection site as the needle surpassed canula by 0.5 mm): ante-posterior −2.06 mm, lateral 2.5 mm, dorso-ventral −1.4 mm. Animals were allowed to recover for 3 days after surgery before drug treatments started.
(§3) Animals were injected under Isofluorane anesthesia with 300 nl of either drug (treated) or vehicle (control) through a small needle guided through the implanted canulas every 3-4 days for 12-21 days (depending on experiment). Canula positions were confirmed in all analyzed sections to be above Ca3b-a without harming the mossy fiber projection or CA3 pyramidal cell dendrites.
as §1
Individual LMT volumes contained in these cubes were measured using the Surpass/ Isosurface function of the software. Non-saturating imaging conditions were chosen for all size analyses. An intensity threshold of 300 was chosen to selectively analyze LMTs (excluding axons and other smaller objects). All identified objects were verified by eye inspection. Generally, the settings for the analysis were identical for all samples of all ages, but in some cases we verified the settings through internal calibration using the diameters and signal intensities of axons. After these measurements, LMTs were grouped according to their volumes. The volumes of all LMTs in one group were added up, and expressed as percentage of the total volume of all LMTs measured per cube. For the quantification of LMT sizes in 2D, MIPs of 3D stacks were created in ImageJ, and LMT surfaces (areas in μm^2) were measured. For all samples, LMTs were inspected by eye in 3D to be identified as individual LMTs and not fused with other LMTs. LMT numbers were determined in CA3b as follows: the sum of all mGFP-positive LMTs within a region of interest (ROI; a MIP) was divided by the number of mGFP-labeled axons within that ROI, and by the length along CA3 included in the ROI. LMT numbers were then normalized to 100 μm axon length. Wnt7a/b staining intensities were measured on single confocal planes. […]

Wnt signaling [3] = experiment: sFRP-1 applied in Rab3a-/- mice housed under EE conditions; format: in vivo
From the text: Transgenic mice expressing membrane-targeted GFP in only a few neurons (Thy1-mGFPs, L21 and L15) were as described (De Paola et al., 2003). Transgenic males were crossed over more than ten generations with non-transgenic F1 offsprings from C57BI6×BalbC crosses, so that the genetic background of the mice was 50% each of C57BI6 and BalbC. Rab3a knockout mice (B6; 129S-Rab3a^tm1Sud/J) were obtained from the Jackson Laboratory and backcrossed into Thy1-mGFP (L21) mice.
For enriched environment (EE) experiments, male mice were housed in groups of 3-4 littermates in large (rat) cages equipped with 3 running wheels per cage, toys and hiding spaces. […]
as §3
(§4) Microscope images were processed and analysed using Metamorph 6.1, Imaris 4.2 (Bitplane AG) and ImageJ softwares. […] For the quantification of LMT sizes in 3D (volumes) at least three confocal 3D stacks were acquired in CA3b for each preparation (three mice per condition), and analyzed using Imaris 4.2 software. […]

Wnt signaling [4] = experiment: sFRP-1 applied locally into hippocampal CA3 through a canule in mice housed under enriched environment (EE) conditions; format: in vivo; details: sFRP-1 present in CA3 during entire EE procedure, vs vehicle; no effect in dentate gyrus
From the text: as §2
Mature recombinant sFRP-1 was obtained from R&D systems and dissolved in PBS/0.1% BSA (vehicle: PBS/0.1% BSA) to a working concentration of 50 μg/ml. Wnt agonist (Calbiochem) was dissolved in a small volume of DMSO and then further diluted with PBS to a final concentration of 10 mM (DMSO<1:1000). […]
as §3, §4

[5] = local into CA3, control housing

Molecule | LMT satellite numbers (Wnt signaling [1]) | AZ densities at LMTs (Wnt signaling [2]; [5]) | stratum lucidum AZ numbers (Wnt signaling [2]; [5]) | stratum lucidum LMT numbers (Wnt signaling [2]; [5]) | contents of AZs per LMT (Wnt signaling [2]; [5]) | fractions of LMTs with satellites (Wnt signaling [2]; local into CA3, control housing (not shown)) | effect of EE on LMT complexities (Wnt signaling [3]) | effect of EE on LMT numbers (Wnt signaling [3]) | effect of the enriched housing conditions on AZ numbers (Wnt signaling [4]) | effect of the enriched housing conditions on satellite numbers (Wnt signaling [4])
COc1cccc(-c2cnc(N)nc2NCc2ccc3c(c2)OCO3)c1 [Wnt agonist, 2-amino-4-[3,4-(methylenedioxy)benzyl-amino]-5-(3-methoxyphenyl)pyrimidine, reference compound] | increases | increased | increased | increased |  |  |  |  |  | 
B1 |  |  | reduction |  | reduction | reduction | effectively suppressed the effect of EE | effectively suppressed the effect of EE | effectively suppresses the effect of the enriched housing conditions | effectively suppresses the effect of the enriched housing conditions
